Laboratory results: PMC11417369, “DNA sequence and chromatin differentiate sequence-specific transcription factor binding in the human malaria parasite Plasmodium falciparum”

Target: T1, AP2-HC D1 (Plasmodium falciparum, UniProt Q8IKR9 1316-1374)
T1 sequence: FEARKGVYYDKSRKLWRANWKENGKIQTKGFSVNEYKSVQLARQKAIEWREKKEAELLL
Test: gcPBM; about 25 ug protein; PBS, 1% milk, 0.2 mg/ml BSA, salmon testes DNA, 0.03% Triton X-100
Details: tags: N-terminal GST (pGEX-4T-1), kept; label: surface-attached array probe

| Binder | binding signal |
| --- | --- |
| CACACA_site8718 (dsDNA) DNA 1: ATAATTTGTGGACACACACACACACCGACATATATA DNA 2: TATATATGTCGGTGTGTGTGTGTGTCCACAAATTAT | 11.8 ln median PBM intensity, better of two orientations |
| CACACA_site8328 (dsDNA) DNA 1: TTGGGTCAAACATAAACACACACAAAAAGAAAAAAT DNA 2: ATTTTTTCTTTTTGTGTGTGTTTATGTTTGACCCAA | 10.7 ln median PBM intensity, better of two orientations |
| CACACA_site2857 (dsDNA) DNA 1: AAAAAAAACAGACACACACACATACACATACATACA DNA 2: TGTATGTATGTGTATGTGTGTGTGTCTGTTTTTTTT | 11.8 ln median PBM intensity, better of two orientations |
| CACACA_site6643 (dsDNA) DNA 1: AACATACACATATACACACACACATATATACCTATA DNA 2: TATAGGTATATATGTGTGTGTGTATATGTGTATGTT | 11.9 ln median PBM intensity, better of two orientations |
| CACACA_site2860 (dsDNA) DNA 1: AAAAAAAAAAAAAACACACACACACCCATACACATA DNA 2: TATGTGTATGGGTGTGTGTGTGTTTTTTTTTTTTTT | 11.7 ln median PBM intensity, better of two orientations |
| CACACA_site4435 (dsDNA) DNA 1: TACACAGACGGACACACACACACACTAGAAAAAAAA DNA 2: TTTTTTTTCTAGTGTGTGTGTGTGTCCGTCTGTGTA | 11.9 ln median PBM intensity, better of two orientations |
| CACACA_site482 (dsDNA) DNA 1: GAATAATCCAAACACACACACACACCCGAATAAATA DNA 2: TATTTATTCGGGTGTGTGTGTGTGTTTGGATTATTC | 11.7 ln median PBM intensity, better of two orientations |
| CACACA_site5428 (dsDNA) DNA 1: AAAAGATAATTATGCACACACACACCCAGACACAAC DNA 2: GTTGTGTCTGGGTGTGTGTGTGCATAATTATCTTTT | 11.7 ln median PBM intensity, better of two orientations |
| CACACA_site6216 (dsDNA) DNA 1: AAAAAAAAAAGACACACACACACACGGAGATATATA DNA 2: TATATATCTCCGTGTGTGTGTGTGTCTTTTTTTTTT | 11.7 ln median PBM intensity, better of two orientations |
| CACACA_site2012 (dsDNA) DNA 1: AATATGAACAGACACACACACACAAAAAAAAAAAAA DNA 2: TTTTTTTTTTTTTGTGTGTGTGTGTCTGTTCATATT | 11.8 ln median PBM intensity, better of two orientations |
| CACACA_site8823 (dsDNA) DNA 1: TAATTATGCCAACACACACACACACCCAACTAAAAA DNA 2: TTTTTAGTTGGGTGTGTGTGTGTGTTGGCATAATTA | 10.8 ln median PBM intensity, better of two orientations |
| CACACA_site904 (dsDNA) DNA 1: ATAAAAAGGAAACACACACACACACCCATATATATA DNA 2: TATATATATGGGTGTGTGTGTGTGTTTCCTTTTTAT | 11.9 ln median PBM intensity, better of two orientations |
| CACACA_site5152 (dsDNA) DNA 1: GTATAATATGAACACACACACACACCCAAAAAAAAA DNA 2: TTTTTTTTTGGGTGTGTGTGTGTGTTCATATTATAC | 11.9 ln median PBM intensity, better of two orientations |
| CACACA_site6373 (dsDNA) DNA 1: AACATACATAGACACACACACACACGCACACGCACA DNA 2: TGTGCGTGTGCGTGTGTGTGTGTGTCTATGTATGTT | 11 ln median PBM intensity, better of two orientations |
| CACACA_site6991 (dsDNA) DNA 1: ACAGAAAAAAGACACACACACATAATATACATACAT DNA 2: ATGTATGTATATTATGTGTGTGTGTCTTTTTTCTGT | 11.8 ln median PBM intensity, better of two orientations |
| CACACA_site4189 (dsDNA) DNA 1: AAAAAAAACGGACACACACACATTCAATATAAAACA DNA 2: TGTTTTATATTGAATGTGTGTGTGTCCGTTTTTTTT | 11.8 ln median PBM intensity, better of two orientations |
| CACACA_site8023 (dsDNA) DNA 1: CCTGAACACATACATACACACACACTAATAAAAAAA DNA 2: TTTTTTTATTAGTGTGTGTGTATGTATGTGTTCAGG | 11.3 ln median PBM intensity, better of two orientations |
| CACACA_site1447 (dsDNA) DNA 1: AAAAAAAAAAAACACACACACACACCCACAAAATAT DNA 2: ATATTTTGTGGGTGTGTGTGTGTGTTTTTTTTTTTT | 11.7 ln median PBM intensity, better of two orientations |
| CACACA_site4551 (dsDNA) DNA 1: AAAAAAAAAAAACACACACACACACTAGTACATACA DNA 2: TGTATGTACTAGTGTGTGTGTGTGTTTTTTTTTTTT | 11.8 ln median PBM intensity, better of two orientations |
| CACACA_site3056 (dsDNA) DNA 1: AGCTCTTGTCATTTTGCACACACACCCGTATAGGTT DNA 2: AACCTATACGGGTGTGTGTGCAAAATGACAAGAGCT | 11 ln median PBM intensity, better of two orientations |
| CACACA_site803 (dsDNA) DNA 1: AAAAAAAACAAATACACACGCACACCGAAAAAAAAA DNA 2: TTTTTTTTTCGGTGTGCGTGTGTATTTGTTTTTTTT | 10.9 ln median PBM intensity, better of two orientations |
| CACACA_site336 (dsDNA) DNA 1: GGAGCACCCAGACACACACACACATATATATATATA DNA 2: TATATATATATATGTGTGTGTGTGTCTGGGTGCTCC | 10.6 ln median PBM intensity, better of two orientations |

| Binder | binding signal |
| --- | --- |
| CACACA_site1725 (dsDNA) DNA 1: CATATATACGCATACACACACACACCCACACCCACA DNA 2: TGTGGGTGTGGGTGTGTGTGTGTATGCGTATATATG | 10.7 ln median PBM intensity, better of two orientations |
| CACACA_site6714 (dsDNA) DNA 1: ATAATACACAAGCACACACACACACGGATATTTATA DNA 2: TATAAATATCCGTGTGTGTGTGTGCTTGTGTATTAT | 11.8 ln median PBM intensity, better of two orientations |
| CACACA_site903 (dsDNA) DNA 1: CCATAAAAAGGATACACACACACACCCACATATATA DNA 2: TATATATGTGGGTGTGTGTGTGTATCCTTTTTATGG | 11.9 ln median PBM intensity, better of two orientations |
| CACACA_site4909 (dsDNA) DNA 1: AAAAAATCAAAACACACACACACACTAGAAAAAAAA DNA 2: TTTTTTTTCTAGTGTGTGTGTGTGTTTTGATTTTTT | 11.8 ln median PBM intensity, better of two orientations |
| CACACA_site1444 (dsDNA) DNA 1: AAAAAATCAAAACACACACACACACCCAAAAAAAAA DNA 2: TTTTTTTTTGGGTGTGTGTGTGTGTTTTGATTTTTT | 11.8 ln median PBM intensity, better of two orientations |
| CACACA_site8770 (dsDNA) DNA 1: AACAAACACAGACACACACACACACTAATATGATTA DNA 2: TAATCATATTAGTGTGTGTGTGTGTCTGTGTTTGTT | 11.7 ln median PBM intensity, better of two orientations |
| CACACA_site270 (dsDNA) DNA 1: AATACTTATTATGAAACACACACCAAAACTACATAA DNA 2: TTATGTAGTTTTGGTGTGTGTTTCATAATAAGTATT | 10.7 ln median PBM intensity, better of two orientations |
| CACACA_site6093 (dsDNA) DNA 1: TATATAAATGGACACACACACACCTTATAATTATTA DNA 2: TAATAATTATAAGGTGTGTGTGTGTCCATTTATATA | 11.9 ln median PBM intensity, better of two orientations |
| CACACA_site7659 (dsDNA) DNA 1: AGAATAAAAAGGAACACACACACACGCATATAAATA DNA 2: TATTTATATGCGTGTGTGTGTGTTCCTTTTTATTCT | 11.7 ln median PBM intensity, better of two orientations |
| CACACA_site118 (dsDNA) DNA 1: ATATATATATATTACACACACACAAAAAAAATAAAG DNA 2: CTTTATTTTTTTTGTGTGTGTGTAATATATATATAT | 11.7 ln median PBM intensity, better of two orientations |
| CACACA_site3306 (dsDNA) DNA 1: CAACATTTGAAACACACACACATACAAACAAACAAA DNA 2: TTTGTTTGTTTGTATGTGTGTGTGTTTCAAATGTTG | 11.8 ln median PBM intensity, better of two orientations |
| CACACA_site4465 (dsDNA) DNA 1: AAATAATATAAATACACACACACATATATAAATACA DNA 2: TGTATTTATATATGTGTGTGTGTATTTATATTATTT | 11.7 ln median PBM intensity, better of two orientations |
| CACACA_site6301 (dsDNA) DNA 1: CACACGCACAGACACACACACACACGGATATAAATA DNA 2: TATTTATATCCGTGTGTGTGTGTGTCTGTGCGTGTG | 11.7 ln median PBM intensity, better of two orientations |
| CACACA_site6495 (dsDNA) DNA 1: TTAAACTTGAGACACACACACACACGGATATAAAAA DNA 2: TTTTTATATCCGTGTGTGTGTGTGTCTCAAGTTTAA | 11.8 ln median PBM intensity, better of two orientations |
| CACACA_site758 (dsDNA) DNA 1: TTAAACTTGAAACACACACACACACCCATATAAAAA DNA 2: TTTTTATATGGGTGTGTGTGTGTGTTTCAAGTTTAA | 11.7 ln median PBM intensity, better of two orientations |
| CACACA_site4398 (dsDNA) DNA 1: AGTATACTCAAACACACACACACAAAAAAAAAAAAA DNA 2: TTTTTTTTTTTTTGTGTGTGTGTGTTTGAGTATACT | 11.8 ln median PBM intensity, better of two orientations |
| CACACA_site1585 (dsDNA) DNA 1: AAAATAAAAAAAAACACACACATACAAGCATATATA DNA 2: TATATATGCTTGTATGTGTGTGTTTTTTTTTATTTT | 11.2 ln median PBM intensity, better of two orientations |
| CACACA_site5780 (dsDNA) DNA 1: ATAAATTAAAAACACACACACATCTGGATACCCCTA DNA 2: TAGGGGTATCCAGATGTGTGTGTGTTTTTAATTTAT | 11.5 ln median PBM intensity, better of two orientations |
| CACACA_site3497 (dsDNA) DNA 1: AGCAAATACAAACACACACACACATATACATATATA DNA 2: TATATATGTATATGTGTGTGTGTGTTTGTATTTGCT | 11.7 ln median PBM intensity, better of two orientations |
| CACACA_site6334 (dsDNA) DNA 1: AAAAAAAAAAGACACACACACAAATACAAATACATA DNA 2: TATGTATTTGTATTTGTGTGTGTGTCTTTTTTTTTT | 10.9 ln median PBM intensity, better of two orientations |
| CACACA_site1505 (dsDNA) DNA 1: TATATATATATATACACACACACAAAAAAAAAAAAA DNA 2: TTTTTTTTTTTTTGTGTGTGTGTATATATATATATA | 11.3 ln median PBM intensity, better of two orientations |
| CACACA_site8113 (dsDNA) DNA 1: CACGCATACAGACACACACACACACCGATATATATA DNA 2: TATATATATCGGTGTGTGTGTGTGTCTGTATGCGTG | 11.1 ln median PBM intensity, better of two orientations |
